This is an account of results in paper PMC10540216, “Activity Guided Azide-methyllysine Photo-trapping for Substrate Profiling of Lysine Demethylases” (Journal of the American Chemical Society, 2023).

“Also recorded” adds a separate entry of the source.

Format in all cases: cell-based, human
The test system of assay [1] is eIF4A3 trimethylation in HEK293T cells. Briefly: Immunoprecipitation of eIF4A3 from HEK293T cells and Kme3 immunoblot. The note with it: eIF4A3 IP, pan-Kme3 immunoblot, vs control vector or control siRNA. Background: Immunoblotting shows a protein as a band on a membrane.
Assay [2] concerns CBX1-eIF4A3 interaction. Briefly: Interactome pull-down of eIF4A3 using recombinant CBX1 from HEK293T nuclear extracts. The conditions noted are these: 6xHis CBX1, Ni-NTA beads.
Assay [3] relates to CBX1-eIF4A3 interaction. As to the kind of experiment: Immunoprecipitation using CBX1 antibody from HEK293T cells, eIF4A3 immunoblot. The conditions noted are these: vs control vector. As for the experimental part:
concentration. The samples were then heated to 65°C for 15 minutes and loaded into a 4-12% polyacrylamide gel for Western blotting.
22. Immunoprecipitation using eIF4A3 and CBX1 antibodies […]
Then 4 mg of nuclear extracts were added and left mixing overnight at 4°C. The following day, the beads were pelleted, and the supernatant was removed.
The beads were washed twice with 50 mM Tris pH 7.5, 100 mM KCl, 0.1% Triton X. Laemmli dye (4X) was added to “elution buffer” from the Protein A Dynabead kit for a final 1X concentration. Each sample received 60 µL of the denaturing elution solution and was then incubated at 65°C for 15 minutes. The beads were pelleted on the magnetic rack and the supernatants were collected to perform Western blots. […]
Each microcentrifuge tube received an CBX1 antibody mixture containing 10 µL antibody (ProteinTech cat. # 10241-2-AP). The antibodies […]
were incubated with the beads using gentle agitation for 1 hour at 4°C. The beads were then washed 2x with conjugation buffer (200 µl of 20 mM sodium phosphate, 0.15M NaCl). BS3 crosslinking solution (250 µl of 5 mM BS3 in conjugation buffer) was added to each aliquot and incubated at room temperature for 20 minutes. The supernatant was removed and a second round of BS3 solution was administered for 5 minutes at room temperature. […]

B1: G9a: full-length G9a methyltransferase expressed in HEK293T cells (protein, UniProt Q96KQ7 1-1210, looked up)
chain: MAAAAGAAAAAAAEGEAPAEMGALLLEKETRGATERVHGSLGDTPRSEETLPKATPDSLEPAGPSSPASVTVTVGDEGADTPVGATPLIGDESENLEGDGDLRGGRILLGHATKSFPSSPSKGGSCPSRAKMSMTGAGKSPPSVQSLAMRLLSMPGAQGAAAAGSEPPPATTSPEGQPKVHRARKTMSKPGNGQPPVPEKRPPEIQHFRMSDDVHSLGKVTSDLAKRRKLNSGGGLSEELGSARRSGEVTLTKGDPGSLEEWETVVGDDFSLYYDSYSVDERVDSDSKSEVEALTEQLSEEEEEEEEEEEEEEEEEEEEEEEEDEESGNQSDRSGSSGRRKAKKKWRKDSPWVKPSRKRRKREPPRAKEPRGVNGVGSSGPSEYMEVPLGSLELPSEGTLSPNHAGVSNDTSSLETERGFEELPLCSCRMEAPKIDRISERAGHKCMATESVDGELSGCNAAILKRETMRPSSRVALMVLCETHRARMVKHHCCPGCGYFCTAGTFLECHPDFRVAHRFHKACVSQLNGMVFCPHCGEDASEAQEVTIPRGDGVTPPAGTAAPAPPPLSQDVPGRADTSQPSARMRGHGEPRRPPCDPLADTIDSSGPSLTLPNGGCLSAVGLPLGPGREALEKALVIQESERRKKLRFHPRQLYLSVKQGELQKVILMLLDNLDPNFQSDQQSKRTPLHAAAQKGSVEICHVLLQAGANINAVDKQQRTPLMEAVVNNHLEVARYMVQRGGCVYSKEEDGSTCLHHAAKIGNLEMVSLLLSTGQVDVNAQDSGGWTPIIWAAEHKHIEVIRMLLTRGADVTLTDNEENICLHWASFTGSAAIAEVLLNARCDLHAVNYHGDTPLHIAARESYHDCVLLFLSRGANPELRNKEGDTAWDLTPERSDVWFALQLNRKLRLGVGNRAIRTEKIICRDVARGYENVPIPCVNGVDGEPCPEDYKYISENCETSTMNIDRNITHLQHCTCVDDCSSSNCLCGQLSIRCWYDKDGRLLQEFNKIEPPLIFECNQACSCWRNCKNRVVQSGIKVRLQLYRTAKMGWGVRALQTIPQGTFICEYVGELISDAEADVREDDSYLFDLDNKDGEVYCIDARYYGNISRFINHLCDPNIIPVRVFMLHQDLRFPRIAFFSSRDIRTGEELGFDYGDRFWDIKSKYFTCQCGSEKCKHSAEAIALEQSRLARLDPHPELLPELGSLPPVNT
modifications: full-length
notes: full-length G9a methyltransferase expressed in HEK293T cells
Consider B1, for which, in assay [1], the “eIF4A3 Kme3 level” value is listed as “increased Kme3 compared to the control vector; also recorded: considerable increase in Kme3 on eIF4A3”. Moreover, the “eIF4A3 enrichment by recombinant CBX1 pull-down” value in the assay on CBX1-eIF4A3 interaction [2] was “maximum enrichment of eIF4A3”. Further, the “eIF4A3 enrichment by endogenous CBX1 (IP)” value in the assay with CBX1-eIF4A3 interaction [3] is on record as “increased in G9a-transfected cells; also recorded: robust enrichment of eIF4A3 by CBX1”.

B2: KDM4A: full-length wild-type KDM4A overexpressed in HEK293T cells (protein, UniProt O75164 1-1064, looked up)
chain: MASESETLNPSARIMTFYPTMEEFRNFSRYIAYIESQGAHRAGLAKVVPPKEWKPRASYDDIDDLVIPAPIQQLVTGQSGLFTQYNIQKKAMTVREFRKIANSDKYCTPRYSEFEELERKYWKNLTFNPPIYGADVNGTLYEKHVDEWNIGRLRTILDLVEKESGITIEGVNTPYLYFGMWKTSFAWHTEDMDLYSINYLHFGEPKSWYSVPPEHGKRLERLAKGFFPGSAQSCEAFLRHKMTLISPLMLKKYGIPFDKVTQEAGEFMITFPYGYHAGFNHGFNCAESTNFATRRWIEYGKQAVLCSCRKDMVKISMDVFVRKFQPERYKLWKAGKDNTVIDHTLPTPEAAEFLKESELPPRAGNEEECPEEDMEGVEDGEEGDLKTSLAKHRIGTKRHRVCLEIPQEVSQSELFPKEDLSSEQYEMTECPAALAPVRPTHSSVRQVEDGLTFPDYSDSTEVKFEELKNVKLEEEDEEEEQAAAALDLSVNPASVGGRLVFSGSKKKSSSSLGSGSSRDSISSDSETSEPLSCRAQGQTGVLTVHSYAKGDGRVTVGEPCTRKKGSAARSFSERELAEVADEYMFSLEENKKSKGRRQPLSKLPRHHPLVLQECVSDDETSEQLTPEEEAEETEAWAKPLSQLWQNRPPNFEAEKEFNETMAQQAPHCAVCMIFQTYHQVEFGGFNQNCGNASDLAPQKQRTKPLIPEMCFTSTGCSTDINLSTPYLEEDGTSILVSCKKCSVRVHASCYGVPPAKASEDWMCSRCSANALEEDCCLCSLRGGALQRANDDRWVHVSCAVAILEARFVNIAERSPVDVSKIPLPRFKLKCIFCKKRRKRTAGCCVQCSHGRCPTAFHVSCAQAAGVMMQPDDWPFVVFITCFRHKIPNLERAKGALQSITAGQKVISKHKNGRFYQCEVVRLTTETFYEVNFDDGSFSDNLYPEDIVSQDCLQFGPPAEGEVVQVRWTDGQVYGAKFVASHPIQMYQVEFEDGSQLVVKRDDVYTLDEELPKRVKSRLSVASDMRFNEIFTEKEVKQEKKRQRVINSRYREDYIEPALYRAIME
modifications: full-length
Turning to B2, in assay [1], the “eIF4A3 Kme3 level” value was “significantly reduced the Kme3 level; also recorded: robustly deceases eIF4A3 methylation; also recorded: robust eIF4A3 demethylation”. The “eIF4A3 enrichment by recombinant CBX1 pull-down” value in the assay on CBX1-eIF4A3 interaction [2] was “decreased the association”. Besides, in the assay on CBX1-eIF4A3 interaction [3], the “eIF4A3 enrichment by endogenous CBX1 (IP)” value was “decreased in KDM4A-transfected cells; also recorded: reduced it compared to control vector-transfected cells”.
